Consider three molecules from patent US20120208232, “Cell-Free Synthesis of Active Reprogramming Transcription Factors” (published 2012).

For data set [1], the target named is rhSox2 (Homo sapiens, UniProt P48431 P48431:1-317). Briefly: NoShift plate assay, positive control. Conditions: tags: Peprotech; label: biotin. Here is the method:
(§1) Assessment of the DNA Binding Activities of the Fusion Reprogramming Factors. The DNA-binding activities of the R9-Nanog, R9-Oct3/4, and R9-Sox2 fusion proteins were assayed by colorimetry utilizing the NoShift Transcription Factor Assay Kit (Novagen) according to the manufacturer's instructions. To assess sequence-specific binding activity, 1-2 μg of the R9-Nanog fusion protein, 2-10 μg of the R9-Oct3/4 fusion protein or 1-4 μg of the R9-Sox2 fusion protein were each incubated in […] with 0.5 μM of their respective biotinylated consensus dsDNA binding targets. […] Non-biotinylated competitor consensus dsDNA and scrambled dsDNA used to assess competitive binding were added at […]. As a positive control, recombinant human (rh) Nanog (Abcam) and rhSox (Peprotech) were used. HRP-conjugated anti-mouse immunoglobulin G was used as a secondary antibody to recognize the anti-Nanog (Abcam), anti-Oct3/4 (R&D Systems), and anti-Sox2 (R&D Systems) mouse monoclonal antibodies. All assays were performed in duplicate. Binding activity was measured via colorimetric absorbance at 450 nm on a Tecan multiwell spectrophotometer using 3,3,5,5-tetramethylbenzidine as the substrate.
(§2) The NoShift Assay (Novagen) was used to verify the DNA binding activities of R9-Nanog, R9-Sox2, and R9-Oct3/4. […]

For data set [2], the target named is R9-Sox2 (Homo sapiens, UniProt P48431 P48431:1-317). Briefly: NoShift plate assay, 0.5 uM DNA; reduced by unlabelled consensus competitor. Conditions: protein: synthetic; tags: N-terminal CAT9-StrepTagII-Xa-R9-His6-G4S fusion, E. coli cell-free synthesis; label: biotin. How it is done:
as §1, §2

Data set [3] has as its target rhNanog (Homo sapiens, UniProt Q9H9S0 Q9H9S0:1-305). Briefly: NoShift plate assay, positive control. The note with it: tags: Abcam; label: biotin. Here is the method: as §1, §2
The target in data set [4] is R9-Oct3/4 (Homo sapiens, UniProt Q01860 Q01860:1-360). Briefly: NoShift plate assay, 0.5 uM DNA; reduced by unlabelled consensus competitor. The note with it: protein: synthetic; tags: N-terminal CAT9-StrepTagII-Xa-R9-His6-G4S fusion, E. coli cell-free synthesis; label: biotin. How it is done: as §1, §2
Sequence of R9-Oct3/4 (Q01860 whole entry, the tested form may be a part, one chain of several): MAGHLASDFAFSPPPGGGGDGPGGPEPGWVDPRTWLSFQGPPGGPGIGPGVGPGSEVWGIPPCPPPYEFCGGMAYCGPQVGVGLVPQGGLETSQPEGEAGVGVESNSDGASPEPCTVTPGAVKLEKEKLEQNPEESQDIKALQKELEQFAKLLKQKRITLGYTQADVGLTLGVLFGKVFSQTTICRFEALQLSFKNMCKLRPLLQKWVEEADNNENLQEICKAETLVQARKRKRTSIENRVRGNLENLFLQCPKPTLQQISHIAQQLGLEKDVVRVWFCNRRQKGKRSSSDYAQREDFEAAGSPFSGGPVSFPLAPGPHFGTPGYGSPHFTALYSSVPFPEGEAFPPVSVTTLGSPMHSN

Sequence of rhNanog (Q9H9S0 whole entry, the tested form may be a part, one chain of several): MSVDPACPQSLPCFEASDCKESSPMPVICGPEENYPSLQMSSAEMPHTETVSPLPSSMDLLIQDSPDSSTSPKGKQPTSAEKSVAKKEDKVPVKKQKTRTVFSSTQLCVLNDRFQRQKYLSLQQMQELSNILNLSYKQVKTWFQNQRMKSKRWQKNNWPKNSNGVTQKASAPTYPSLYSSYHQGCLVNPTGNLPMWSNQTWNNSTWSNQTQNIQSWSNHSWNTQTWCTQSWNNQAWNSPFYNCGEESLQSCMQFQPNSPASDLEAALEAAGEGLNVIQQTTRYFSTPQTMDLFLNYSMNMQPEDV
Sequence of R9-Sox2 (P48431 whole entry, the tested form may be a part, one chain of several): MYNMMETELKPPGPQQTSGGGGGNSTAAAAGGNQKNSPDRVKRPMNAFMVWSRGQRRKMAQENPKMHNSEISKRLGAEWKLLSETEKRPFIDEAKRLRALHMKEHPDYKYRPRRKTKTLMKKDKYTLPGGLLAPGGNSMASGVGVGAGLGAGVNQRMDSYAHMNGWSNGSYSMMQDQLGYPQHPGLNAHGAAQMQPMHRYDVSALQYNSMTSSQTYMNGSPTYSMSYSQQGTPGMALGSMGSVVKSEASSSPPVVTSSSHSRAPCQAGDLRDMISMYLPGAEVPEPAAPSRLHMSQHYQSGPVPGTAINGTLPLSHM
Sequence of rhSox2 (P48431 whole entry, the tested form may be a part, one chain of several): as above

B1: Sox2 consensus dsDNA (dsDNA)
DNA 1: GCAGAGGACAAAGGTGCCGTG
DNA 2: CACGGCACCTTTGTCCTCTGC
As to B1, the binding result in data set [1] and in data set [2] was “binds” each time.

B2: Nanog consensus dsDNA (dsDNA)
DNA 1: ACCTGTTAATGGGAGCGC
DNA 2: GCGCTCCCATTAACAGGT
As to B2, in data set [3], the binding result is “binds”.

B3: Oct3/4 consensus dsDNA (dsDNA)
DNA 1: GCAGAGAGATGCATGTGCCGT
DNA 2: ACGGCACATGCATCTCTCTGC
Consider B3, for which the binding result in data set [4] was “binds”.
